From patent US11266716B2, “Use of dermcidin in sterile inflammatory conditions” (THE FEINSTEIN INSTITUTES FOR MEDICAL RESEARCH, priority 2015, dated 2022)

Columns and labels:
various types of cells = details: cited from earlier work
[1] = system: Murine macrophage-like RAW 264.7; assay: LPS- or CIRP-induced NO release by murine macrophages (Griess reaction); format: cell-based; details: 16 h
Protocol: FIG. 2. Dermcidin dose-dependently attenuated LPS- and CIRP-induced NO release by murine macrophages. Murine macrophages were stimulated with LPS or CIRP alone or in the presence of recombinant dermcidin (DCD) for 16 hours, and extracellular levels of nitric oxide (NO) were determined by the Griess Reagent. *, P<0.05 versus “−control”; #, P<0.05 versus “+LPS”, or “+CIRP” alone.
Cell culture: Murine macrophage-like RAW 264.7 were obtained from the American Type Culture Collection (ATCC, Rockville, Md.), and were cultured in DMEM supplemented with 1% penicillin/streptomycin and 10% FBS. Human blood was purchased from the Long Island Blood Bank (Melville, N.Y.), and human peripheral blood mononuclear cells (HuPBMCs) were isolated by density gradient centrifugation through Ficoll (Ficoll-Paque PLUS, Pharmacia, Piscataway, N.J.) as previously described (20-22). […] Subsequently, the cell-conditioned culture media were analyzed respectively for levels of nitric oxide, and other cytokines by the Griess Reaction and Cytokine Antibodies Arrays as previously described (19, 23).
Nitric oxide (NO) assay: The levels of NO in the culture medium were determined indirectly by measuring the NO^2− production with a colorimetric assay based on the Griess reaction (21, 24). NO^2− concentrations were determined with reference to a standard curve generated with sodium nitrite at various dilutions.

[2] = system: human peripheral blood mononuclear cells (HuPBMCs); assay: LPS- or HMGB1-induced cytokine/chemokine release by human monocytes (Cytokine Antibody Array); format: cell-based
Protocol: FIG. 3A-3B. Dermcidin modulated LPS- and HMGB1-induced chemokine release by human monocytes. Human peripheral mononuclear cells (huPBMCs) were stimulated with LPS (0.8 μg/ml) or HMGB1 (4.0 μg/ml) alone, or in the presence of DCD (1.0 μg/ml) for 16 hours, and extracellular levels of cytokines and chemokines were determined by Cytokine Antibody Arrays (Panel A, B). A, Representative cytokine antibody arrays. The name of the cytokines and positive controls (“Pos”, or “+Ctrl”) were labeled in the table below. B, Relative cytokine levels. The relative cytokine levels were estimated by measuring the intensity of corresponding signal, and expressed as mean±SEM [% of positive controls (“+Ctrl”) of respective arrays] of two independent experiments. *, P<0.05 versus “untreated”; #, P<0.05 versus “+LPS” or “+HMGB1” alone.
Cell culture: Murine macrophage-like RAW 264.7 were obtained from the American Type Culture Collection (ATCC, Rockville, Md.), and were cultured in DMEM supplemented with 1% penicillin/streptomycin and 10% FBS. Human blood was purchased from the Long Island Blood Bank (Melville, N.Y.), and human peripheral blood mononuclear cells (HuPBMCs) were isolated by density gradient centrifugation through Ficoll (Ficoll-Paque PLUS, Pharmacia, Piscataway, N.J.) as previously described (20-22). Adherent macrophages or HuPBMCs were gently washed with, and cultured in, DMEM before stimulation with LPS (0.4 μg/ml), CIRP (2.0 μg/ml), or HMGB1 (1.0 μg/ml) in the absence or presence of recombinant dermcidin for 16 h. Subsequently, the cell-conditioned culture media were analyzed respectively for levels of nitric oxide, and other cytokines by the Griess Reaction and Cytokine Antibodies Arrays as previously described (19, 23).
Cytokine antibody array: Human Cytokine Antibody Array C3 (Cat. No. AAH-CYT-3-4, RayBiotech Inc., Norcross, Ga., USA), which respectively detect 42 cytokines on one membrane, were used to determine cytokine levels in human monocyte-conditioned culture medium as previously described (21, 24). Briefly, the membranes were sequentially incubated with equal volumes of cell culture medium (200 al), primary biotin-conjugated antibodies, and horseradish peroxidase-conjugated streptavidin. After exposing to X-ray film, the relative signal intensity was determined using the Scion Image software.

Male C57BL/6 mice = assay: Hepatic ischemia/reperfusion (I/R) injury in mice; format: in vivo
Protocol: FIG. 4A-4B. Intravenous administration of dermcidin conferred protection against hepatic ischemia/reperfusion (I/R) injury. Male C57BL/6 mice (20-25 g) were subjected to hepatic ischemia/reperfusion by temporal clamping the hepatic artery and portal vein for 60 minutes, which typically produced ischemia in 70% of the liver. At the beginning of the reperfusion, 0.2 ml saline or recombinant dermcidin solution (“DCD”, 5.0 mg/kg BW) was injected via the internal jugular vein. At 24 h after the onset of ischemia, animals were euthanized to harvest blood to measure serum levels of hepatic injury markers such as alanine aminotransferase (ALT) (4A) and aspartate aminotransferase (AST) (4B) using commercial kits.
FIG. 5. DCD monomer protects against hepatic ischemic/reperfusion injury. Representative liver histology at 24 h post the onset of reperfusion. Note a normal liver parenchyma architecture in the “Sham” control, but hepatic necrosis in the “I/R”. […] Liver injury was also assessed histologically using the Suzuki liver injury scores, and expressed as means±S.E. of 3-6 animals per group. *P<0.05 vs. sham; #P<0.05 vs. “I/R” group.
FIG. 6A-6B. DCD protects against hepatic ischemic/reperfusion-induced lung injury. 6A). Histopathological characteristics of lung injury after hepatic I/R. Representative H&E histological images of lung sections at 24 h post the onset of reperfusion. Note a normal lung architecture in the “Sham” control, and extensive lung injury and neutrophil infiltration in the “I/R” group. […] 6B). Histological Scores. Lung injury was assessed histologically using American Thoracic Society Documents' lung injury scores, and expressed as means±S.E. of 3-6 animals per group. *P<0.05 vs. sham; #P<0.05 vs. “I/R” group.
In further experiments, intravenous administration of dermcidin conferred protection against hepatic ischemia/reperfusion (I/R) injury. Male C57BL/6 mice (20-25 g) were subjected to hepatic ischemia/reperfusion by temporal clamping the hepatic artery and portal vein for 60 minutes, which typically produced ischemia in 70% of the liver. […]
A representative liver histology at 24 h post the onset of reperfusion is shown, note a normal liver parenchyma architecture in the “Sham” control, and hepatic necrosis in the “I/R”. […] Liver injury was also assessed histologically using the Suzuki liver injury scores, and expressed as means±S.E. of 3-6 animals per group. *P<0.05 vs. sham; #P<0.05 vs. “I/R” group.
DCD also protects against hepatic ischemic/reperfusion-induced lung injury. […] Lung injury was assessed histologically using American Thoracic Society Documents' lung injury scores, and expressed as means±S.E. of 3-6 animals per group. *P<0.05 vs. sham; #P<0.05 vs. “I/R” group.

[3] = human monocyte cultures, HMGB1, DCD 1.0 μg/ml, 16 h
[4] = human monocyte cultures, LPS, DCD 1.0 μg/ml, 16 h
[5] = 5.0 mg/kg BW via internal jugular vein at beginning of reperfusion, 24 h after onset of ischemia
[6] = 24 h post the onset of reperfusion

Molecule: N-terminal peptide (residue 20-62): N-terminal proteolytic peptide of dermcidin, residue 20-62 (YDPEAASAPGSGNPCHEASAAQKENAGEDPGLARQAPKPRKQR; UniProt P81605 20-62, looked up, fragment)
- protection of cells against oxidative or hypoxic stresses (various types of cells): protect various types of cells against oxidative or hypoxic stresses

B1: dermcidin: Recombinant human dermcidin, mature form residues 20-110 without signal peptide, N-terminal histidine tag, expressed in E. coli (protein, listed as Homo sapiens)
chain: YDPEAASAPGSGNPCHEASAAQKENAGEDPGLARQAPKPRKQRSSLLEKGLDGAKKAVGGLGKLGKDAVEDLESVGKGAVHDVKDVLDSVL
- CIRP-induced NO release ([1]; macrophages stimulated with CIRP): dose-dependently and significantly attenuated
- LPS-induced NO release ([1]; macrophages stimulated with LPS): dose-dependently and significantly attenuated
- immune modulating properties on dimer formation ([2]; dimers formed in the absence of reducing agents, in vitro, data not shown): remained unaltered
- TNF secretion ([2]; human monocyte cultures): slightly stimulated
- HMGB1-induced release of GRO-α [2, 3]: effectively inhibited
- HMGB1-induced release of MCP-3 [2, 3]: effectively inhibited
- LPS-induced release of GRO-α [2, 4]: effectively inhibited
- LPS-induced release of MCP-3 [2, 4]: effectively inhibited
- serum alanine aminotransferase (ALT), hepatic injury marker (Male C57BL/6 mice; [5]): significant protection
- serum aspartate aminotransferase (AST), hepatic injury marker (Male C57BL/6 mice; [5]): significant protection
- lung histology (H&E) after hepatic I/R (Male C57BL/6 mice; [6]): well-preserved tissue structure

B2: DCD monomer: Recombinant dermcidin 12-14 kDa monomer, seen in the presence of reducing agent DTT (protein, UniProt P81605 20-110, looked up)
Dermcidin: YDPEAASAPGSGNPCHEASAAQKENAGEDPGLARQAPKPRKQRSSLLEKGLDGAKKAVGGLGKLGKDAVEDLESVGKGAVHDVKDVLDSVL
- liver histology after hepatic I/R (Male C57BL/6 mice; [6]): well-preserved tissue structure
